From PMC9478404

How the values were obtained:
Test in all cases: ITC; DBD (500 μM) titrated into NRD (50 μM) at 19 °C; 150 mM NaCl, 20 mM Tris, 1 mM BME (pH 8); MicroCal VP-ITC; mean of three technical replicates
[1] = molecular target: B-Myb NRD^510–600 S577A (human) (UniProt P10244)
[2] = molecular target: B-Myb NRD^510–600 (C-terminal half of the NRD) (human) (UniProt P10244)
[3] = molecular target: B-Myb NRD^510–600 T538A (human) (UniProt P10244)
Sequence of B-Myb NRD^510–600 T538A (human) (P10244 510-600 T538A): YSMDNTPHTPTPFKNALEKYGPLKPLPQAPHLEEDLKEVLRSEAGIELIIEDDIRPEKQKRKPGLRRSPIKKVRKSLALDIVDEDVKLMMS

Sequence of B-Myb NRD^510–600 (C-terminal half of the NRD) (human) (P10244 510-600): as the sequence (P10244 510-600 T538A) above, with A29T counted along it
Sequence of B-Myb NRD^510–600 S577A (human) (P10244 510-600 S577A): as the sequence (P10244 510-600 T538A) above, with A29T, S68A counted along it

Kd [1]: 3.2 µM | Kd [2]: 4.9 µM | Kd [3]: 6.5 µM
Substance: B-Myb DNA-binding domain (B-Myb^34–183) (from UniProt P10244-1 34-183) (domain or fragment)
